Earlier results in paper PMC4497409.
Where “and” joins values, the source holds several entries; their conditions need not be identical. Equal values may be shown once.

What was measured:
[1] = target: Frizzled4 CRD (Mus musculus) (UniProt Q61088); assay: ELISA
[2] = target: Lrp6 P1E1P2E2 (Homo sapiens) (UniProt O75581); assay: AlphaScreen
[3] = target: Frizzled4 CRD (Homo sapiens) (UniProt Q9ULV1); assay: AlphaScreen
Chain of Frizzled4 CRD (Homo sapiens) (Q9ULV1 40-161): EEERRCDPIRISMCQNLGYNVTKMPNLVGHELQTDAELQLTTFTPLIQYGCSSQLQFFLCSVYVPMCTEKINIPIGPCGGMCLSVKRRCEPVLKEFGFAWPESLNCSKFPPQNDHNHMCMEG

Chain of Lrp6 P1E1P2E2 (Homo sapiens) (O75581 20-630): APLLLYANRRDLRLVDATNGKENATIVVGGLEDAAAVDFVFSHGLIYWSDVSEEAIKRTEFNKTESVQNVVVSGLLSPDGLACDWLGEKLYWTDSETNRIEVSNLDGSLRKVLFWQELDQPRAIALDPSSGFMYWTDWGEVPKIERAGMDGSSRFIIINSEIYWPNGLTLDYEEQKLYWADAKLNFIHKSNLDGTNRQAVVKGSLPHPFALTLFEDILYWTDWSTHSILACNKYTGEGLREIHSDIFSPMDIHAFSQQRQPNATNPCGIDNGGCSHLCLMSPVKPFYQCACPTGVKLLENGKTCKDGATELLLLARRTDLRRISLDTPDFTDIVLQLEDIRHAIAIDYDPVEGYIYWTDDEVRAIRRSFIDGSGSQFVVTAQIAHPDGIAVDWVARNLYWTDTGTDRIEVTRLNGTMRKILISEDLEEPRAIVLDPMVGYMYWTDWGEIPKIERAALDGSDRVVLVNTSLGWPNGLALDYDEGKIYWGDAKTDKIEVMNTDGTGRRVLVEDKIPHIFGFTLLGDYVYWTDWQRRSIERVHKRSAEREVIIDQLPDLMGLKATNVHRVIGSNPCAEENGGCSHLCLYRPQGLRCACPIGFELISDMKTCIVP
Chain of Norrin (P48744 25-131): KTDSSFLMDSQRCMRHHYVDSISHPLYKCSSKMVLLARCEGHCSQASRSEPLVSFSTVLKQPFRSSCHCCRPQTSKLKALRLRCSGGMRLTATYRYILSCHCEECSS
Chain of Frizzled4 CRD (Mus musculus) (Q61088 40-161): as the sequence (Q9ULV1 40-161) above, with S12A, K94R, E102D, S103T counted along it

| Kd [1] | Kd [2] | Kd [3] | Substance |
| --- | --- | --- | --- |
| 3.5 nM | – | – | Norrin (from UniProt P48744) |
| – | 450 nM | 11 nM and 5 nM | Norrin (from UniProt Q00604) |
